Patent US20140377284A1 (BIOCEROX PRODUCTS B V, published 2014)

Experiments:
[1] = molecular target: T1, human CD134-derived peptide (truncated CRD3 A1-module-CRD4 subdomain A1-module) (human); assay: peptide ELISA, 10 ng/well peptide coated
T1 construct: Synthesized by Pepscan Presto; coated on ELISA plates
T1 peptide: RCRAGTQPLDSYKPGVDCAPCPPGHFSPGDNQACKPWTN
Experimental: (§1) After adding 1 M […], optical densities was measured at a wavelength of 450 nm (reference wavelength of 655 nm) using a microplate reader (BioRad).
(§2) Ninety six-wells flat-bottom ELISA plates (Corning) were coated with 10 ng/well human CD134-derived peptide (synthesized by Pepscan Presto, Lelystad, The Netherlands), which corresponded to amino acid sequence of truncated CRD3 A1-module-CRD4 subdomain A1 module (see SEQ ID NO. 38) or with 10 ng/well human fibronectin-derived control peptide (synthesized by Pepscan Presto, Lelystad, The Netherlands), which corresponded to amino acid sequence of extra type III structural domain (see SEQ ID NO. 37) in PBS o/n at 4° C. After extensive washing in PBS/0.05% Tween 20, plates were blocked in PBS/0.05% Tween 20/1% BSA fraction V (Roche) for 1 hour at RT. […] After extensive washing in PBS/0.05% Tween 20, binding of antibodies was determined with 1:5000 diluted horseradish peroxidase-conjugated goat anti-human IgG Fcγ-specific antibodies (Jackson ImmunoResearch) for 1 hour at RT, followed by a ready-to-use solution of TMB substrate (Invitrogen) for colorimetric detection. After adding 1 M H₂SO₄, optical densities was measured at a wavelength of 450 nm (reference wavelength of 655 nm) using a microplate reader (BioRad).

[2] = molecular target: T2, human CD134 (full-length, on cells) (human, UniProt P43489 29-277); assay: flow cytometry, PHA-stimulated human CD3+ T lymphocytes
T2 construct: also called OX40; TNFRSF4
T2 sequence: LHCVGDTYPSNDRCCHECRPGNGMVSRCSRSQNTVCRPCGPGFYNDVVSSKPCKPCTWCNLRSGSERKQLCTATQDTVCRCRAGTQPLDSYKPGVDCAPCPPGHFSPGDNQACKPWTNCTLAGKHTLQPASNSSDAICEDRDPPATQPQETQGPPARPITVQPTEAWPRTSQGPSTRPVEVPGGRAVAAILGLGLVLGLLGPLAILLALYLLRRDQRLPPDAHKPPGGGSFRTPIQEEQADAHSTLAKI

[3] = molecular target: T3, human fibronectin-derived control peptide (extra type III structural domain) (human); assay: peptide ELISA
T3 construct: Synthesized by Pepscan Presto; coated on ELISA plates
T3 peptide: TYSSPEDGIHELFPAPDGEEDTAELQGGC
Experimental: as §1, §2

[4] = molecular target: T2, human CD134 (full-length, on cells); assay: flow cytometry, stable CD134 293-F clone no. 5, biotinylated antibody detected with streptavidin-PE
[5] = molecular target: T4, recombinant human CD134:human Fcγ (IgG1) fusion protein (human, UniProt P01857-1 100-330 = IgG part, limits assumed); assay: competition ELISA, plate-bound CD134:Fc; competitor biotinylated mouse 12H3 at 20 ng/mL
T4 construct: domain: Fcγ (IgG1); Bought (R&D Systems); also called rhuCD134
Experimental: Ninety six-wells flat-bottom ELISA plates (Corning) were coated with 50 ng/well recombinant human CD134:human Fcγ (IgG1) fusion protein (R&D Systems) in PBS o/n at 4° C. After extensive washing in PBS/0.05% Tween 20, plates were blocked in PBS/0.05% Tween 20/1% BSA fraction V (Roche) for 1 hour at RT. […] After adding 1 M H₂SO₄, optical densities were measured at a wavelength of 450 nm (reference wavelength of 655 nm) using a microplate reader (BioRad).

[6] = molecular target: T2, human CD134 (full-length, on cells); assay: competition flow cytometry, stable CD134 293-F clone no. 5; competitor biotinylated mouse 12H3 at 700 ng/mL
Experimental: Full-length human CD134 (SEQ ID NO1) was re-cloned in a pcDNA3.1-derived expression plasmid (see Example 11 (c) above). […] After extensive washing in PBS/BSA/NaN₃, cells were fixed in 2% formaldehyde in PBS/BSA/NaN₃ for 30 minutes at 4° C.

[7] = molecular target: T2, human CD134 (full-length, on cells); assay: flow cytometry, stable CD134 293-F clone no. 23
Experimental: Full-length human CD134 (SEQ ID NO. 1) was re-cloned in a pcDNA3.1-derived expression plasmid (see Example 11 (d) below). […] After extensive washing in PBS/BSA/NaN₃, cells were subsequently incubated with 1:200 diluted PE-conjugated goat anti-mouse IgG (Fcγ specific) antibodies (Jackson ImmunoResearch) or with 1:200 diluted PE-conjugated goat anti-human IgG (Fcγ specific) antibodies (Jackson ImmunoResearch) for 30 minutes at 4° C. After extensive washing in PBS/BSA/NaN₃, cells were fixed in 2% formaldehyde in PBS/BSA/NaN₃ for 30 minutes at 4° C. Binding of antibodies was measured using flow cytometry (FACSCalibur; BD Biosciences).

[8] = molecular target: T4, recombinant human CD134:human Fcγ …; assay: ELISA, plate-bound CD134:Fc, biotinylated antibody detected with streptavidin-HRP
[9] = molecular target: T5, truncated human CD134 'truncated (tc) CRD4' construct (human, UniProt P43489 147-277); assay: flow cytometry, transiently transfected 293-F cells
T5 construct: also called truncated CRD4
T5 sequence: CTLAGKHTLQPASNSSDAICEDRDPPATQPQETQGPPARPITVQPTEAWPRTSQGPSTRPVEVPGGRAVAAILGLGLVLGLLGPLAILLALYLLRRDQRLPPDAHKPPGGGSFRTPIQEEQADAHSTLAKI
Experimental: After 48 h, surface human CD134 expression on transfected cells was analyzed by FACS analysis. To this end, transfected cells were harvested and put at 1-2×10⁶ cells/mL in ice-chilled PBS/BSA/NaN₃ supplemented with 50 μg/mL purified human IgG (Sigma; blocking Fey receptors). […] After extensive washing in PBS/BSA/NaN₃, cells were subsequently incubated with 1:200 diluted PE-conjugated goat anti-mouse IgG (Fcγ specific) antibodies (Jackson ImmunoResearch) or with 1:200 diluted PE-conjugated goat anti-human IgG (Fcγ specific) antibodies (Jackson ImmunoResearch) for 30 minutes at 4° C. […] After extensive washing in PBS/BSA/NaN₃, cells were subsequently incubated with 1:200 diluted PE-conjugated goat anti-mouse IgG (Fcγ specific) antibodies (Jackson ImmunoResearch) for 30 minutes at 4° C. After extensive washing in PBS/BSA/NaN₃, cells were fixed in 2% formaldehyde in PBS/BSA/NaN₃ for 30 minutes at 4° C. Binding of antibodies was measured using flow cytometry (FACSCalibur; BD Biosciences).

B1: mouse anti-human CD134 monoclonal antibody clone 12H3 (antibody, V domains shown)
VH: EVQLQQSGPELVKPGASVKISCKTSGYTFKDYTMHWVKQSHGKSLEWIGGIYPNNGGSTYNQNFKDKATLTVDKSSSTAYMEFRSLTSEDSAVYYCARMGYHGPHLDFDVWGAGTTVTVSP
VL: DIVMTQSHKFMSTSLGDRVSITCKASQDVGAAVAWYQQKPGQSPKLLIYWASTRHTGVPDRFTGGGSGTDFTLTISNVQSEDLTDYFCQQYINYPLTFGGGTKLEIKR
notes: also called m12H3; parental mouse anti-human CD134 antibody clone 12H3
binding result [1]: binds
EC50 [2]: ~0.5 µg/mL
binding result [3]: no binding (tested: 50.0 µg/mL)
EC50 [4]: ~0.7 µg/mL
IC50 [5]: ~0.75 µg/mL
IC50 [6]: ~3.5 µg/mL
EC50 [7]: > 0.2 µg/mL
EC50 [8]: ~0.02 µg/mL
binding result [9]: no binding (tested: 20.0 µg/mL)
